The supplement of paper PMC9233669
Variants at the floor of the assay were thinned out.

Legend:
biotinyl-Phe-oxazolone = assay: self-aminoacylation, catalytic enhancement (BFO) (fold over background); higher = more active; k-Seq, kA / k0A0; sequences stand for … in GGGAAUGGAUCCACAUCUACGAAUUC…UUCACUGCAGACUUGACGAAGCUG
Summary of the method: (§1)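 Each biotinyl-aminoacyl-oxazolone, at 2–1250 μM, was incubated with mutagenized RNA pools (0.43 μM) carrying a 21-nt variable region. The 50 μL reactions contained HEPES/NaCl/KCl/MgCl2/CaCl2 buffer with 5% acetonitrile at pH 6.9–7.0 and ran for 90 minutes at room temperature. After streptavidin capture, RNA was measured by qPCR in triplicate and by Illumina sequencing, and catalytic enhancement was calculated as median kA over the uncatalyzed rate from a pseudo-first-order fit of per-sequence fraction reacted.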

biotinyl-Ile-oxazolone = assay: self-aminoacylation, catalytic enhancement (BIO) (fold over background); higher = more active; k-Seq, kA / k0A0; sequences stand for … in GGGAAUGGAUCCACAUCUACGAAUUC…UUCACUGCAGACUUGACGAAGCUG
Summary of the method: as §1

biotinyl-Met-oxazolone = assay: self-aminoacylation, catalytic enhancement (BMO) (fold over background); higher = more active; k-Seq, kA / k0A0; sequences stand for … in GGGAAUGGAUCCACAUCUACGAAUUC…UUCACUGCAGACUUGACGAAGCUG
Summary of the method: as §1

biotinyl-Val-oxazolone = assay: self-aminoacylation, catalytic enhancement (BVO) (fold over background); higher = more active; k-Seq, kA / k0A0; sequences stand for … in GGGAAUGGAUCCACAUCUACGAAUUC…UUCACUGCAGACUUGACGAAGCUG
Summary of the method: as §1

biotinyl-Leu-oxazolone = assay: self-aminoacylation, catalytic enhancement (BLO) (fold over background); higher = more active; k-Seq, kA / k0A0; sequences stand for … in GGGAAUGGAUCCACAUCUACGAAUUC…UUCACUGCAGACUUGACGAAGCUG
Summary of the method: as §1

biotinyl-Trp-oxazolone = assay: self-aminoacylation, catalytic enhancement (BWO) (fold over background); higher = more active; k-Seq, kA / k0A0; sequences stand for … in GGGAAUGGAUCCACAUCUACGAAUUC…UUCACUGCAGACUUGACGAAGCUG
Summary of the method: as §1

Sequence	self-aminoacylation (biotinyl-Phe-oxazolone)	self-aminoacylation (biotinyl-Ile-oxazolone)	self-aminoacylation (biotinyl-Met-oxazolone)	self-aminoacylation (biotinyl-Val-oxazolone)	self-aminoacylation (biotinyl-Leu-oxazolone)	self-aminoacylation (biotinyl-Trp-oxazolone)
AUUACGCUGGCCAUCGAGUGA [Fam2.1 aminoacylation ribozyme variant]	32.4	4.5	6.9	4.76	5.89	8.46
AUUACGCUGGUCAUAGAGUGA [Fam2.1 aminoacylation ribozyme variant]	7.49	2.33	3.31	2.23	3.54	4.14
AUUACGCUGGUCAUCCAGUGA [Fam2.1 aminoacylation ribozyme variant]	12.8	2.27	3.63	1.96	3.99	4.31
AUUACGCUGGUCAUCGAGUAA [Fam2.1 aminoacylation ribozyme variant]	0.975	1.6	1.43	1.53	1.26	1.8
AUUACGCUGGUCAUCGAGUGC [Fam2.1 aminoacylation ribozyme variant]	1.4	1.02	1.44	1.33	1.31	1.24
AUUACGCUGGUCAUCGGGUGA [Fam2.1 aminoacylation ribozyme variant]	60.9	6.21	8.98	7.46	7.84	9.36
AUUACGCUGUUCAUCGAGUGA [Fam2.1 aminoacylation ribozyme variant]	4.19	2.4	3.87	2.71	3.57	4.58
AUUACUCCGGUCAUCGAGUGA [Fam2.1 aminoacylation ribozyme variant]	16	2.81	5.22	2.64	5.43	5.76
AUUACUCUGGUCAGCGAGUGA [Fam2.1 aminoacylation ribozyme variant]	17.6	3.29	5.21	3.13	5.83	5.85
AUUACUCUGGUCAUCCAGUGA [Fam2.1 aminoacylation ribozyme variant]	17.3	3.2	5.01	2.74	5.29	6.01
AUUACUCUGGUCAUUGAGUGA [Fam2.1 aminoacylation ribozyme variant]	32.7	4.15	7.88	3.61	8.45	9.3
AUUACUGUGGUCAUCGAGUGA [Fam2.1 aminoacylation ribozyme variant]	14.1	2.65	4.65	2.56	4.25	5.16
AUUAGACUGGUCAUCGAGUGA [Fam2.1 aminoacylation ribozyme variant]	7.88	3	4.4	2.56	3.73	4.81
AUUAGCCUGAUCAUCGAGUGA [Fam2.1 aminoacylation ribozyme variant]	46.7	4.82	10.4	4.4	10.6	11
AUUAGCCUGGUCAUCGAGUGA [Fam2.1 aminoacylation ribozyme variant]	21.7	4.61	7.22	4.55	7.65	9.2
AUUAGCCUGGUCAUCGAGUGU [Fam2.1 aminoacylation ribozyme variant]	3.87	2.76	4.71	3.14	4.18	5.12
AUUAGCCUUGUCAUCGAGUGA [Fam2.1 aminoacylation ribozyme variant]	6.72	2.85	3.73	2.76	3.97	4.07
AUUAUCCGGGUCAUCGAGUGA [Fam2.1 aminoacylation ribozyme variant]	45.7	4.14	8.26	4.04	8.08	8.13
AUUAUCCUGGUCAACGAGUGA [Fam2.1 aminoacylation ribozyme variant]	30.1	3.69	6.62	3.87	8.02	7.67
AUUAUCCUGGUCAGCGAGUGA [Fam2.1 aminoacylation ribozyme variant]	17.7	3.04	5.26	3.13	5.28	6.53
AUUAUCCUGGUCAUCGAGUAA [Fam2.1 aminoacylation ribozyme variant]	2.69	1.43	2.03	1.39	1.85	1.08
AUUAUCCUGGUCAUCGCGUGA [Fam2.1 aminoacylation ribozyme variant]	146	6.96	17.9	8.29	19.9	19.3
AUUAUCCUGGUCAUGGAGUGA [Fam2.1 aminoacylation ribozyme variant]	13.6	2.67	4.22	2.6	4.6	5.21
AUUCAACCAGGUCAUCGGGUG [Fam2.2 aminoacylation ribozyme variant]	58.9	4.64	5.83	4.22	7.64	6.24
AUUCAACGAGGUCAUCGGGUG [Fam2.2 aminoacylation ribozyme variant]	54.8	3.97	7.46	5.11	9.27	6.07
